Results: patent US20110143428A1 (Genentech, published 2011)
Where two headings read alike, the source gives them in different places.

T1: hVEGF-C (human, UniProt P49767)
T1 construct: unlabelled; also called human VEGF-C
T1 sequence (VEGF-C, looked up): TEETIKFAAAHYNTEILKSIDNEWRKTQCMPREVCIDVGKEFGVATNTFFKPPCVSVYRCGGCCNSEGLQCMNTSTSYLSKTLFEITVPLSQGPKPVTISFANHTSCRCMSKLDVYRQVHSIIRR

T2: VEGF-C C137S
T2 construct: also called hVEGF-C C137S; human VEGF-C C137S
T2 VEGF-C: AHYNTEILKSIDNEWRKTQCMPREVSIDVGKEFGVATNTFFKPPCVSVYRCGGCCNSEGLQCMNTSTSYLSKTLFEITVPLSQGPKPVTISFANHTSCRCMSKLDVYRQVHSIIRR


How the values were obtained:
hVEGF-C [1] = molecular target: T1, hVEGF-C; assay: phage competition ELISA: phage-displayed clone incubated with increasing soluble hVEGF-C, unbound phage captured on hVEGF-C coated plate, anti-M13-HRP, OD450
VEGF-C C137S = molecular target: T2, VEGF-C C137S; assay: phage competition ELISA as in paragraph 556 with human VEGF-C C137S as antigen: phage-displayed clone, soluble antigen varied, anti-M13-HRP, OD450
hVEGF-C [2] = molecular target: T1, hVEGF-C; assay: phage competition ELISA: phage-displayed clone incubated with increasing soluble hVEGF-C, unbound phage captured on hVEGF-C coated plate, anti-M13-HRP, OD450; remark: listed apart in the source

Binder	IC50 (hVEGF-C [1]) [nM]	IC50 (VEGF-C C137S) [nM]	IC50 (hVEGF-C [2]) [nM]
VC4.2 (antibody, V domains shown, also called clone VC4.2) VH: EVQLVESGGGLVQPGGSLRLSCAASGFTFTDNWIHWVRQAPGKGLEWVGVISPYSGATYYADSVKGRFTISADTSKNTAYLQMNSLRAEDTAVYYCARDADYAYAWWAFDYWGQGTLVTVSS VL: DIQMTQSPSSLSASVGDRVTITCRASQDVSTAVAWYQQKPGKAPKLLIYSASFLYSGVPSRFSGSGSGTDFTLTISSLQPEDFATYYCQQSYTTPPTFGQGTKVEIK	2.64	–	–
VC1.12.6 (antibody, V domains shown, also called clone VC1.12.6) VH: EVQLVESGGGLVQPGGSLRLSCAASGFTFSDSDIHWVRQAPGKGLEWVAWISPYVGFTDYADSVKGRFTISADTSKNTAYLQMNSLRAEDTAVYYCARLFDVIFDYWGQGTLVTVSS VL: DIQMTQSPSSLSASVGDRVTITCRASQDVSTAVAWYQQKPGKAPKLLIYSASFLYSGVPSRFSGSGSGTDFTLTISSLQPEDFATYYCQQSYNTPPTFGQGTKVEIK	–	32.8	–
VC1.12.3 (antibody, V domains shown, also called clone VC1.12.3) VH: EVQLVESGGGLVQPGGSLRLSCAASGFTFSDSDIHWVRQAPGKGLEWVAWISPYVGFTDYADSVKGRFTISADTSKNTAYLQMNSLRAEDTAVYYCARLFDVIFDYWGQGTLVTVSS VL: DIQMTQSPSSLSASVGDRVTITCRASQDVSTAVAWYQQKPGKAPKLLIYSASFLYSGVPSRFSGSGSGTDFTLTISSLQPEDFATYYCQQTYAIPPTFGQGTKVEIK	–	23	–
VC1.10 (antibody, V domains shown, also called clone VC1.10) VH: EVQLVESGGGLVQPGGSLRLSCAASGFTFSDSDIHWVRQAPGKGLEWVAWISPYSGYTDYADSVKGRFTISADTSKNTAYLQMNSLRAEDTAVYYCVRLFGIIFDYWGQGTLVTVSS VL: DIQMTQSPSSLSASVGDRVTITCRASQDVSTAVAWYQQKPGKAPKLLIYSASFLYSGVPSRFSGSGSGTDFTLTISSLQPEDFATYYCQQSYTTPPTFGQGTKVEIK	–	–	17
VC1.4 (antibody, V domains shown, also called clone VC1.4) VH: EVQLVESGGGLVQPGGSLRLSCAASGFTFSDSDIHWVRQAPGKGLEWVAWISPYSGYTDYADSVKGRFTISADTSKNTAYLQMNSLRAEDTAVYYCVRLFGVIFDYWGQGTLVTVSS VL: DIQMTQSPSSLSASVGDRVTITCRASQDVSTAVAWYQQKPGKAPKLLIYSASFLYSGVPSRFSGSGSGTDFTLTISSLQPEDFATYYCQQSYTTPPTFGQGTKVEIK	–	–	40.7
VC1.12.5 (antibody, V domains shown, also called clone VC1.12.5) VH: EVQLVESGGGLVQPGGSLRLSCAASGFTFSDSDIHWVRQAPGKGLEWVAWISPYVGFTDYADSVKGRFTISADTSKNTAYLQMNSLRAEDTAVYYCARLFDVIFDYWGQGTLVTVSS VL: DIQMTQSPSSLSASVGDRVTITCRASQDVSTAVAWYQQKPGKAPKLLIYSASFLYSGVPSRFSGSGSGTDFTLTISSLQPEDFATYYCQQSYTTPTTFGQGTKVEIK	–	28.1	–
VC1.2 (antibody, V domains shown, also called clone VC1.2) VH: EVQLVESGGGLVQPGGSLRLSCAASGFTFSDSDIHWVRQAPGKGLEWVAWISPYSGYTDYADSVKGRFTISADTSKNTAYLQMNSLRAEDTAVYYCARLFEIIFDYWGQGTLVTVSS VL: DIQMTQSPSSLSASVGDRVTITCRASQDVSTAVAWYQQKPGKAPKLLIYSASFLYSGVPSRFSGSGSGTDFTLTISSLQPEDFATYYCQQSYTTPPTFGQGTKVEIK	–	–	27.1
VC1.6 (antibody, V domains shown, also called clone VC1.6) VH: EVQLVESGGGLVQPGGSLRLSCAASGFTFSDSDIHWVRQAPGKGLEWVAWISPYSGYTDYADSVKGRFTISADTSKNTAYLQMNSLRAEDTAVYYCVRLFDVIFDYWGQGTLVTVSS VL: DIQMTQSPSSLSASVGDRVTITCRASQDVSTAVAWYQQKPGKAPKLLIYSASFLYSGVPSRFSGSGSGTDFTLTISSLQPEDFATYYCQQSYTTPPTFGQGTKVEIK	–	–	15.4
VC1.5 (antibody, V domains shown, also called clone VC1.5) VH: EVQLVESGGGLVQPGGSLRLSCAASGFTFSDSDIHWVRQAPGKGLEWVAWISPYSGYTDYADSVKGRFTISADTSKNTAYLQMNSLRAEDTAVYYCARLWEVIFDYWGQGTLVTVSS VL: DIQMTQSPSSLSASVGDRVTITCRASQDVSTAVAWYQQKPGKAPKLLIYSASFLYSGVPSRFSGSGSGTDFTLTISSLQPEDFATYYCQQSYTTPPTFGQGTKVEIK	–	–	28

Continued, values first:

IC50 (hVEGF-C [1]) [nM]	IC50 (VEGF-C C137S) [nM]	IC50 (hVEGF-C [2]) [nM]	Binder
–	4.8	–	VC1.12.9 (antibody, V domains shown, also called clone VC1.12.9) VH: EVQLVESGGGLVQPGGSLRLSCAASGFTFSDSDIHWVRQAPGKGLEWVAWISPYVGFTDYADSVKGRFTISADTSKNTAYLQMNSLRAEDTAVYYCARLFDVIFDYWGQGTLVTVSS VL: DIQMTQSPSSLSASVGDRVTITCRASQDVSTAVAWYQQKPGKAPKLLIYSASFLYSGVPSRFSGSGSGTDFTLTISSLQPEDFATYYCQQSYTIPPTFGQGTKVEIK
–	–	20	VC1.7 (antibody, V domains shown, also called clone VC1.7) VH: EVQLVESGGGLVQPGGSLRLSCAASGFTFSDSDIHWVRQAPGKGLEWVAWISPYSGYTDYADSVKGRFTISADTSKNTAYLQMNSLRAEDTAVYYCARLFDIIFDYWGQGTLVTVSS VL: DIQMTQSPSSLSASVGDRVTITCRASQDVSTAVAWYQQKPGKAPKLLIYSASFLYSGVPSRFSGSGSGTDFTLTISSLQPEDFATYYCQQSYTTPPTFGQGTKVEIK
–	–	22.1	VC1.3 (antibody, V domains shown, also called clone VC1.3) VH: EVQLVESGGGLVQPGGSLRLSCAASGFTFSDSDIHWVRQAPGKGLEWVAWISPYSGYTDYADSVKGRFTISADTSKNTAYLQMNSLRAEDTAVYYCVRLFEVIFDYWGQGTLVTVSS VL: DIQMTQSPSSLSASVGDRVTITCRASQDVSTAVAWYQQKPGKAPKLLIYSASFLYSGVPSRFSGSGSGTDFTLTISSLQPEDFATYYCQQSYTTPPTFGQGTKVEIK
–	7.7	–	VC1.12.4 (antibody, V domains shown, also called clone VC1.12.4) VH: EVQLVESGGGLVQPGGSLRLSCAASGFTFSDSDIHWVRQAPGKGLEWVAWISPYVGFTDYADSVKGRFTISADTSKNTAYLQMNSLRAEDTAVYYCARLFDVIFDYWGQGTLVTVSS VL: DIQMTQSPSSLSASVGDRVTITCRASQDVSTAVAWYQQKPGKAPKLLIYSASFLYSGVPSRFSGSGSGTDFTLTISSLQPEDFATYYCQQSYTSPTTFGQGTKVEIK
–	–	22.5	VC1.8 (antibody, V domains shown, also called clone VC1.8) VH: EVQLVESGGGLVQPGGSLRLSCAASGFTFSDSDIHWVRQAPGKGLEWVAWISPYSGYTDYADSVKGRFTISADTSKNTAYLQMNSLRAEDTAVYYCTRLFTIIFDYWGQGTLVTVSS VL: DIQMTQSPSSLSASVGDRVTITCRASQDVSTAVAWYQQKPGKAPKLLIYSASFLYSGVPSRFSGSGSGTDFTLTISSLQPEDFATYYCQQSYTTPPTFGQGTKVEIK
–	–	25.3	VC1.11 (antibody, V domains shown, also called clone VC1.11) VH: EVQLVESGGGLVQPGGSLRLSCAASGFTFSDSDIHWVRQAPGKGLEWVAWISPYSGYTDYADSVKGRFTISADTSKNTAYLQMNSLRAEDTAVYYCVRLYDVIFDYWGQGTLVTVSS VL: DIQMTQSPSSLSASVGDRVTITCRASQDVSTAVAWYQQKPGKAPKLLIYSASFLYSGVPSRFSGSGSGTDFTLTISSLQPEDFATYYCQQSYTTPPTFGQGTKVEIK
–	25.9	–	VC1.12.2 (antibody, V domains shown, also called clone VC1.12.2) VH: EVQLVESGGGLVQPGGSLRLSCAASGFTFSDSDIHWVRQAPGKGLEWVAWISPYVGFTDYADSVKGRFTISADTSKNTAYLQMNSLRAEDTAVYYCARLFDVIFDYWGQGTLVTVSS VL: DIQMTQSPSSLSASVGDRVTITCRASQDVSTAVAWYQQKPGKAPKLLIYSASFLYSGVPSRFSGSGSGTDFTLTISSLQPEDFATYYCQQSYWTPLTFGQGTKVEIK
–	16.8	–	VC1.12.10 (antibody, V domains shown, also called clone VC1.12.10) VH: EVQLVESGGGLVQPGGSLRLSCAASGFTFSDSDIHWVRQAPGKGLEWVAWISPYVGFTDYADSVKGRFTISADTSKNTAYLQMNSLRAEDTAVYYCARLFDVIFDYWGQGTLVTVSS VL: DIQMTQSPSSLSASVGDRVTITCRASQDVSTAVAWYQQKPGKAPKLLIYSASFLYSGVPSRFSGSGSGTDFTLTISSLQPEDFATYYCQQSYYSPLTFGQGTKVEIK
–	13.7	–	VC1.12.8 (antibody, V domains shown, also called clone VC1.12.8) VH: EVQLVESGGGLVQPGGSLRLSCAASGFTFSDSDIHWVRQAPGKGLEWVAWISPYVGFTDYADSVKGRFTISADTSKNTAYLQMNSLRAEDTAVYYCARLFDVIFDYWGQGTLVTVSS VL: DIQMTQSPSSLSASVGDRVTITCRASQDVSTAVAWYQQKPGKAPKLLIYSASFLYSGVPSRFSGSGSGTDFTLTISSLQPEDFATYYCQQSYITPPTFGQGTKVEIK
–	7.29	–	VC1.12.1 (antibody, V domains shown, also called clone VC1.12.1) VH: EVQLVESGGGLVQPGGSLRLSCAASGFTFSDSDIHWVRQAPGKGLEWVAWISPYVGFTDYADSVKGRFTISADTSKNTAYLQMNSLRAEDTAVYYCARLFDVIFDYWGQGTLVTVSS VL: DIQMTQSPSSLSASVGDRVTITCRASQDVSTAVAWYQQKPGKAPKLLIYSASFLYSGVPSRFSGSGSGTDFTLTISSLQPEDFATYYCQQSYNIPPTFGQGTKVEIK
–	32.4	5.1	VC1.12 (antibody, V domains shown, also called clone VC1.12) VH: EVQLVESGGGLVQPGGSLRLSCAASGFTFSDSDIHWVRQAPGKGLEWVAWISPYVGFTDYADSVKGRFTISADTSKNTAYLQMNSLRAEDTAVYYCARLFDVIFDYWGQGTLVTVSS VL: DIQMTQSPSSLSASVGDRVTITCRASQDVSTAVAWYQQKPGKAPKLLIYSASFLYSGVPSRFSGSGSGTDFTLTISSLQPEDFATYYCQQSYTTPPTFGQGTKVEIKR
